This is an account of results in PMC6985235 (2020).

This assay concerns the target His-TvCyP1 (Trichomonas vaginalis, UniProt A2DT06 1-173). Put plainly: ITC; 25°C. For orientation: Isothermal titration calorimetry measures the heat released or taken up as one component is titrated into another.

B1: His-Myb3^53–180 (domain or fragment)
chain: KGPFTEAEDDLIREYVKENGPQNWPRITSFLPNRSPKQCRERWFNHLDPAVVKHAWTPEEDETIFRNYLKLGSKWSVIAKLIPGRTDNAIKNRWNSSISKRISTNSNHKEILLPDRSKKRKAADVPKK
In turn, B1 showed a Kd of 2.04 mM.

For orientation: Kd means the constant that tells how readily two partners part at equilibrium.
